Patent US20070134249A1 (GENITOPE, published 2007)

Columns and labels:
Assay in all cases: ELISA
Set-up in all cases: key: 0 = <0.5 OD, 1 = 0.5-1.0 OD, 4 = 1-4 OD
712 = target: T1, 712
T1 construct: H3-23 K4-1; also called PIN712
Text: (§1) Before specificity screening, all of the clonal immunogen-positive hybridoma supernatants were re-screened on the immunogen, a non-family member Id protein, and KLH, if animals were immunized with Id protein that has been conjugated KLH. As described above, this screen identifies HC-specific clones but not mAbs against the light chain constant region. Clones identified positive to the immunogen and KLH were […]. Those found positive to the immunogen but not to the non-family member Id protein or KLH were tittered on the immunogen. In addition to normalizing for different binding affinities and concentrations, each hybridoma supernatant was titered on the fully human form of the Id protein used as the immunogen(s) for the V regions. The titer or dilution resulting in an ELISA absorbance of 2.5 to 3 OD after 30 min. incubation time was then used. Hybridoma specificity was determined by screening against available Id proteins expressing the same HV and KV or LV as well as different HV, KV and LV. The final ELISA results are expressed as follows: 0 (<0.5 OD), 1 (0.5-1.0 OD), or 4 (1-4 OD). Positive hybridoma supernatants are categorized according to specificity: anti-Id, anti-constant region (HC, KC or LC), or V region (HV, KV, LV family or family member).
(§2) In general, the fully human Id protein or proteins containing the immunogen V regions were coated onto 96-well ELISA plates at 2.5-5 ug/mL in carbonate buffer pH 9.6 and incubated at 4° C. for up to 14 days. On the day of the ELISA, plates were brought to RT and blocked with Tris-Tween-20, pH 7.6 for 15-60 min. at RT. Following a NaCl and Triton X-100 wash, diluted hybridoma cell culture supernatants were incubated overnight at 4° C. Hybridoma supernatant dilutions ranged from 1:2 to 1:25 and were prepared in PBS with 5% BSA. Plates were washed and incubated with HRP-conjugated goat anti-mouse IgG-specific detecting antibody. A chromogenic substrate (TMB) was used to measure the amount of mouse antibody bound to each well. The reaction was stopped at or before 30 minutes with IN H2SO4 and plates were read immediately. Absorbency readings at 450 nm ranging between 0-4 OD and using Molecular Devices plate reader and SOFTMAX PRO software.

791 = target: T2, 791
T2 construct: H3-30 K4-1; also called PIN791
Text: as §1, §2

199 = target: T3, 199
T3 construct: H3-7 K4-1; also called PIN199
Text: as §1, §2

626 = target: T4, 626
T4 construct: H5-51 K4-1; also called PIN626
Text: as §1, §2

204 = target: T5, 204
T5 construct: H3-15 K4-1; also called PIN204
Text: as §1, §2

170 = target: T6, 170
T6 construct: H4-34 K4-1; also called PIN170
Text: as §1, §2

591 = target: T7, 591
T7 construct: H3-23 K4-1; also called PIN591
Text: as §1, §2

Measured: grade

B1: mAb clone 12C3 (antibody, V domains shown)
VH: EVKLVESGGGLVQPGGSLSLSCAASGFTYTDYYMNWVRQPPGKALEWLALIRNKANGYTTEYSASLKGRFTISRDNSQSILYLQMNALRAEDSATYYCVRENINYYFDYWGQGTTLTVSS
VL: DIVLTQSPASLAVSLGQRATISCRASESVEYFGASLMQWYQQKSGQPPKLLIRAATNVESGVPARFSGSGSGTDFSLNIHPVEEDDIAMYFCQQSRKVPWTFGGGTKLEIKR
notes: Mouse hybridoma mAb, fusions 20/21 (PIN628 V regions)
4: all assays above
